Values quoted from earlier work in patent US9459187B2, “Blood collection device containing lysophospholipase inhibitor” (Becton, Dickinson and Company, priority 2011, dated 2016).

How the values were obtained:
[1] = target: acetylcholinesterase (AChE) (Homo sapiens, UniProt P22303); details: read-out: Ki for AChE
Chain of acetylcholinesterase (AChE) (P22303 32-614, species assumed): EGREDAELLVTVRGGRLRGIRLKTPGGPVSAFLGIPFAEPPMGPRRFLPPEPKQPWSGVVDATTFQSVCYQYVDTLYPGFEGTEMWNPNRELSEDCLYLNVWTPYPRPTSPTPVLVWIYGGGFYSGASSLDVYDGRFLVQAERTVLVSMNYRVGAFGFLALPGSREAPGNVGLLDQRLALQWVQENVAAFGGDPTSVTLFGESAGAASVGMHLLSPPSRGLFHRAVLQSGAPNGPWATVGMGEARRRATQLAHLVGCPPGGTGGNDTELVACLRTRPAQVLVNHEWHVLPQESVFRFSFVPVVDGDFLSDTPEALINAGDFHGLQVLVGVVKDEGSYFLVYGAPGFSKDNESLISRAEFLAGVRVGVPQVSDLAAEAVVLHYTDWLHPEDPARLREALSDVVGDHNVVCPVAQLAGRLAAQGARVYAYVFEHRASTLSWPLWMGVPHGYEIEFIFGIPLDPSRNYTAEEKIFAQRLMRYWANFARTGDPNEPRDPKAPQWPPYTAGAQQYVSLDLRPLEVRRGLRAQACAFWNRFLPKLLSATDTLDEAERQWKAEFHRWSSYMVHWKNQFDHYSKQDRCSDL

| Compound | half-life in circulation | Ki [1] |
| --- | --- | --- |
| ghrelin: 28-amino acid peptide having the sequence NH2-GSSFLSPEHQRVQQRKESKKPPAKLQPR-COOH (H-GSSFLSPEHQRVQQRKESKKPPAKLQPR-OH; ends and bridges not checked) | about 30 minutes | – |
| CCC1=CC2Cc3nc4cc(Cl)ccc4c(N)c3[C@H](C1)C2 [Huprine X, (1S)-7-chloro-15-ethyl-10-azatetracyclo[11.3.1.0^{2,11}.0^{4,9}]heptadeca-2(11),3,5,7,9,14-hexaen-3-amine] | – | 0.026 nM |
| GIP(1-42) | about 5 minutes | – |
| glucagon: 29-amino acid peptide involved in carbohydrate metabolism | 8 to 18 min | – |
